Measurements: patent US8008547B2, “Glyphosate-N-acetyltransferase (GAT) genes” (E.I. duPont de Nemours, priority 2000, dated 2011)

Assay: Standard protocol for determination of kcat and KM (continuous spectrophotometric assay, Acetyl CoA hydrolysis at 235 nm)
Type: biochemical
Conditions: purified protein, about 23° C., 0.2 mM acetyl CoA; for Kcat: 20 mM HEPES pH 6.8, 10% ethylene glycol; for Km: pH 6.8, glyphosate 0.125 to 10 mM
Summary of the method: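 KM from initial rates over 0.125–10 mM glyphosate, fitted by Lineweaver-Burke transformation of Michaelis-Menten; kcat/KM computed as kcat divided by KM. Continuous spectrophotometric read of acetyl-CoA hydrolysis at 235 nm.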

| Molecule | Kcat | Km |
| --- | --- | --- |
| SEQ ID NO: 482: GAT polypeptide (protein, 1_4H1, GAT polypeptide) MIEVKPINAEDTYELRHRILRPNQPLEACMYETDLLRGSFHLGGFYRGKLISIASFHQAEHSDLQGQKQYQLRGMATLEGYREQKAGSTLIRHAEQLLRKRGADLLWCNARTSASGYYKRLGFSEHGEVFDTPPVGPHILMYKRLT | 3.93 s⁻¹ | 1200 µM |
| SEQ ID NO: 483: GAT polypeptide (protein, 1_5H5, GAT polypeptide) MLEVKPINAEETYELRHKILRPNQPLEACMYESDLLRGSFHLGGYYRGQLISIASFHQAEHSELEGQKQYQLRGMATLEGFREQKAGSTLIKHAEQILRKRGADMLWCNARTSAAGYYKKLGFSEHGEIFDTPPVGPHILMYKKLT | 3.57 s⁻¹ | 510 µM |
| SEQ ID NO: 484: GAT polypeptide (protein, 1_6F12, GAT polypeptide) MIEVKPINAEETYELRHRILRPNQPIEACMYESDLLRGSFHLGGFYRGKLISIASFHQAEHSDLEGQKQYQLRGMATLEGYRDQKAGSTLIKHAEELLRKRGADMLWCNARTSAAGYYKRLGFSEHGEIYETPPVGPHILMYKKIT | 3.48 s⁻¹ | 14700 µM |
| SEQ ID NO: 485: GAT polypeptide (protein, 1_6H6, GAT polypeptide) MIEVKPINAEDTYELRHKILRPNQPIEACMYESDLLRGSFHLGGFYRGQLISIASFHQAEHSDLEGQKQYQLRGMATLEGYRDQKAGSSLIKHAEEILRKRGADLLWCNARTSAAGYYKRLGFSEQGEIFDTPPVGPHILMYKKIT | 4.57 s⁻¹ | 1050 µM |
| SEQ ID NO: 486: GAT polypeptide (protein, 3_11A10, GAT polypeptide) MLEVKPINAEDTYELRHRILRPNQPIEACMYESDLLRGAFHLGGYYRGKLISIASFHQAEHSELQGQKQYQLRGMATLEGYREQKAGSSLVKHAEEILRKRGADLLWCNARTSASGYYKKLGFSEQGEIFETPPVGPHILMYKRIT | 2.2568 s⁻¹ | 170 µM |
| SEQ ID NO: 279: GAT polypeptide (protein, 10_3G5, GAT polypeptide) MIEVKPINAEDTYEIRHRILRPNQPLEACKYETDLLGGTFHLGGYYRGKLVSIASFHQAEHPELEGQKQYQLRGMATLEGYREQKAGSTLIRHAEELLRKKGADLLWCNARTSASGYYKKLGFSEQGEVYDIPPTGPHILMYKKLT | 1.46 s⁻¹ | 2000 µM |
| SEQ ID NO: 487: GAT polypeptide (protein, 3_14F6, GAT polypeptide) MLEVKPINAEDTYELRHRILRPNQPIEACMYESDLLRGAFHLGGFYRGKLISIASFHQAEHSELQGQKQYQLRGMATLEGYREQKAGSSLIKHAEEILRKRGADLLWCNARTSASGYYKKLGFSEQGEIFETPPVGPHILMYKRLT | 3.1405 s⁻¹ | 250 µM |
| SEQ ID NO: 488: GAT polypeptide (protein, 3_15B2, GAT polypeptide) MLEVKPINAEDTYELRHKILRPNQPLEVCMYETDLLRGAFHLGGYYGGKLISIASFHQAEHSELQGQKQYQLRGMATLEGYREQKAGSSLIKHAEEILRKRGADLLWCNARTSASGYYKKLGFSEQGEIFETPPVGPHILMYKRIT | 1.7355 s⁻¹ |  |
| SEQ ID NO: 489: GAT polypeptide (protein, 3_6A10, GAT polypeptide) MIEVKPINAEDTYELRHRILRPNQPIEACMYESDLLRGAFHLGGYYRGKLISIASFHQAEHSELQGQKQYQLRGMATLEGYREQKAGSSLIKHAEEILRKRGADLLWCNARTSASGYYKKLGFSEQGEIFETPPVGPHILMYKRIT | 2.108 s⁻¹ | 660 µM |
| SEQ ID NO: 490: GAT polypeptide (protein, 3_6B1, GAT polypeptide) MLEVKPINAEDTYELRHRILRPNQPIEACMYESDLLRGAFHLGGYYRGKLISIASFHQAEHPELQGQKQYQLRGMATLEGYREQKAGSSLIKHAEEILRKRGADLLWCNARTSASGYYKKLGFSEQGEVFETPPVGPHILMYKRIT | 4.3847 s⁻¹ | 430 µM |
| SEQ ID NO: 491: GAT polypeptide (protein, 3_7F9, GAT polypeptide) MLEVKPINAEDTYELRHRILRPNQPIEACMYESDLLRGAFHLGGYYGGKLISIASFHQAEHSDLQGQKQYQLRGMATLEGYREQKAGSSLIKHAEEILRKRGADLLWCNARTSASGYYKKLGFSEQGEIFETPPVGPHILMYKRIT | 3.2258 s⁻¹ | 290 µM |
| SEQ ID NO: 492: GAT polypeptide (protein, 3_8G11, GAT polypeptide) MLEVKPINAEDTYELRHRILRPNQPIEVCMYESDLLRGAFHLGGYYRGKLISIASFHQAEHSELQGQKQYQLRGMATLEGYREQKAGSSLIKHAEEILRKRGADLLWCNARTSASGYYKKLGFSEQGEIFETPPVGPHILMYKRIT | 1.652 s⁻¹ |  |
| SEQ ID NO: 493: GAT polypeptide (protein, 4_1B10, GAT polypeptide) MIEVKPINAEDTYELRHRILRPNQPIEVCMYETDLLRGAFHLGGFYGGKLISIASFHQAEHSDLQGQKQYQLRGMATLEGYRDQKAGSSLIRHAEQILRKRGADMLWCNARTSASGYYKKLGFSEQGEIFETPPVGPHILMYKRIT | 1.285 s⁻¹ |  |
| SEQ ID NO: 494: GAT polypeptide (protein, 5_2B3, GAT polypeptide) MIEVKPINAEDTYELRHRILRPNQPLEVCMYETDLLRGAFHLGGFYGGKLISIASFHQAEHSDLQGQKQYQLRGMATLEGYRDQKAGSSLIRHAEQILRKRGADMLWCNARTSASGYYKKLGFSEQGEIFETPPVGPHILMYKRIT | 0.9458 s⁻¹ |  |
| SEQ ID NO: 495: GAT polypeptide (protein, X: residue not identified in the source; ends and bridges not checked, GAT polypeptide) MLXVKPINAEDTYELRHKILRPNQPXEVCMYEXDLLRGAFHLGGFYRGKLISIASFHQAEHSDLQGQKQYQLRGMATLEGYRDQKAGSSLIKHAEQILRERGADMLWCNARTSASGYYKKLGFSEQGEVFDTPPVGPHILMYKRLT | 1.257 s⁻¹ |  |
| SEQ ID NO: 496: GAT polypeptide (protein, 5_2F10, GAT polypeptide) MLEVKPINAEDTYELRHKILRPNQPIEVCMYETDLLRGAFHLGGFYGGKLISIASFHQAEHSDLQGQKQYQLRGMATLEGYRDQKAGSSLIRHAEQILRKRGADMLWCNARTSASGYYKKLGFSEQGEIFETPPVGPHILMYKRLT | 0.912 s⁻¹ |  |
| SEQ ID NO: 280: GAT polypeptide (protein, 10_4H7, GAT polypeptide) MIEVKPINAEDTYEIRHRILRPNQPLEACMYETDLLGGTFHLGGYYRGKLVSIASFHQAEHPELEGQKQYQLRGMATLEGYREQKAGSTLIRHAEELLRKKGADLLWCNARTSASGYYKKLGFSEQGEVYDIPPTGPHILMYKKLT | 1.87 s⁻¹ | 1700 µM |
| SEQ ID NO: 497: GAT polypeptide (protein, 6_1A11, GAT polypeptide) MLEVKPINAEDTYELRHKILRPNQPLEVCMYETDLLRGAFHLGGFYRGKLISIASFHQAEHSDLQGQKQYQLRGMATLEGYRDQKAGSSLIRHAEQILRKRGADMLWCNARTSASGYYRKLGFSEQGEVFETPPVGPHILMYKRLT | 0.759 s⁻¹ |  |
| SEQ ID NO: 498: GAT polypeptide (protein, 6_1D5, GAT polypeptide) MIEVKPINAEDTYELRHKILRPNQPLEVCMYETDLLRGAFHLGGFYRGKLISIASFHQAEHSDLQGQKQYQLRGMATLEGYRDQKAGSSLIRHAEQILRKRGADMLWCNARTSASGYYKKLGFSEQGEVFETPPVGPHILMYKRIT | 0.7153 s⁻¹ |  |
| SEQ ID NO: 499: GAT polypeptide (protein, 6_1F11, GAT polypeptide) MIEVKPINAEDTYELRHKILRPNQPLEVCMYETDLLRGAFHLGGFYRGKLISIASFHQAEHSDLQGQKQYQLRGMATLEGYREQKAGSSLIRHAEQILRKRGADMLWCNARTSASGYYKKLGFSEQGEVFETPPVGPHILMYKRLT | 1.7627 s⁻¹ |  |
| SEQ ID NO: 500: GAT polypeptide (protein, 6_1F1, GAT polypeptide) MLEVKPINAEDTYELRHKILRPNQPLEVCMYETDLLRGAFHLGGFYRGKLISIASFHQAEHSELQGQKQYQLRGMATLEGYRDQKAGSSLIRHAEQILRKRGADMLWCNARTSASGYYKKLGFSEQGEVFETPPVGPHILMYKRLT | 1.164 s⁻¹ |  |
| SEQ ID NO: 501: GAT polypeptide (protein, 6_1H10, GAT polypeptide) MLEVKPINAEDTYELRHKILRPNQPLEVCMYETDLLRGAFHLGGFYGGKLISIASFHQAEHSDLQGQKQYQLRGMATLEGYRDQKAGSSLIRHAEEILRKRGADMLWCNARTSASGYYKKLGFSEQGEVFDTPPVGPHILMYKKIT | 0.2835 s⁻¹ |  |
| SEQ ID NO: 502: GAT polypeptide (protein, 6_1H4, GAT polypeptide) MLEVKPINAEDTYELRHKILRPNQPLEVCMYETDLLRGAFHLGGFYGGKLISIASFHQAEHSDLQGQKQYQLRGMATLEGYRDQKAGSTLIKHAEQILRKRGADMLWCNARTSASGYYKKLGFSEQGEVFETPPVGPHILMYKRLT | 1.432 s⁻¹ |  |
| SEQ ID NO: 503: GAT polypeptide (protein, 8_1F8, GAT polypeptide) MIEVKPINAEDTYELRHRILRPNQPLEVCMYETDLLRGAFHLGGFYRGKLISIASFHQAEHSDLQGQKQYQLRGMATLEGYREQKAGSSLIKHAEEILRKRGADLLWCNARTSASGYYKKLGFSEQGEIFDTPPVGPHILMYKRIT | 1.381 s⁻¹ |  |
